# ± gives the uncertainty stated by the source.
# Test: self-splicing fitness, log relative to wild type (ln ratio); higher = more splicing; Tetrahymena group I intron in knt gene, E. coli kanamycin selection, DiMSum; sequences stand for … in CUCUCU…GGAGGGAAAAGUUAUCAGGCAUGCACCUGGUAGCUAGUCUUUAAACCAAUAGAUUGCAUCGGUUUAAAAGGCAAGACCGUCAAAUUGCGGGAAAGGGGUCAACAGCCGUUCAGUACCAAGUCUCAGGGGAAACUUUGAGAUGGCCUUGCAAAGGGUAUGGUAAUAAGCUGACGGACAUGGUCCUAACCACGCAGCCAAGUCCUAAGUCAACAGAUCUUCUGUUGAUAUGGAUGCAGUUCACAGACUAAAUGUCGGUCGGGGAAGAUGUAUUCUUCUCAUAAGAUAUAGUCGGACCUCUCCUUAAUGGGAGCUAGCGGAUGAAGUGAUGCAACACUGGAGCCGCUGGGAACUAAUUUGUAUGCGAAAGUAUAUUGAUUAGUUUUGGAGUACUCGUGGUCG
# Procedure, shortened: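 A randomised library covering all eight P1ex-region intron nucleotides was built with the intron in the knt kanamycin-resistance gene on pET-22b(+) and held in E. coli BL21(DE3). Cells were grown overnight at 37°C or 30°C on LB agar, with or without 25 μg/mL kanamycin, plus 100 μg/mL carbenicillin, 50 μM IPTG and 0.2% rhamnose, and pooled colonies were amplicon-sequenced on an Illumina HiSeq 2500. DiMSum fitness is the error-weighted combination of wild-type-normalised replicate fold changes, kanamycin versus none.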
Sequence,self-splicing fitness (ln) (30 °C),self-splicing fitness (ln) (37 °C)
UUCGAGCAAUAUUACGAGGU,-2.94 ± 0.48,-1.52 ± 0.43
AAUGAGCAAUAUUACGCUUA,-1.94 ± 0.14,-0.919 ± 0.12
AUGAAGCAAUAUUACGCUCA,0.436 ± 0.068,0.555 ± 0.082
CGGGAGCAAUAUUACGCGUC,-2.87 ± 0.22,-2.8 ± 0.27
CCGUAGCAAUAUUACGUUGU,-3.87 ± 0.16,-2.3 ± 0.18
GCCCAGCAAUAUUACGGGGA,-0.813 ± 0.082,-0.181 ± 0.099
CUAGAGCAAUAUUACGCACC,-2.44 ± 0.41,–
UGGAAGCAAUAUUACGCAUA,-1.68 ± 0.17,-0.329 ± 0.14
ACAAAGCAAUAUUACGAGGU,-4.39 ± 0.2,-2.78 ± 0.18
GCAAAGCAAUAUUACGAAGG,-2 ± 0.14,-0.499 ± 0.17
ACGGAGCAAUAUUACGUCGG,-3.04 ± 0.31,-0.422 ± 0.23
CCUCAGCAAUAUUACGGGGG,-4.13 ± 0.28,-2.9 ± 0.23
AACUAGCAAUAUUACGUUCG,-3.36 ± 0.26,-1.79 ± 0.16
GGGUAGCAAUAUUACGAGGA,-2.14 ± 0.22,-2.74 ± 0.3
GAUUAGCAAUAUUACGAACU,-0.696 ± 0.15,-0.559 ± 0.19
AUUCAGCAAUAUUACGAAAG,-1.5 ± 0.11,-1.03 ± 0.13
UACCAGCAAUAUUACGUCCU,-1.79 ± 0.1,-1.34 ± 0.14
CCACAGCAAUAUUACGAAGG,-3.62 ± 0.13,-2.92 ± 0.16
GAACAGCAAUAUUACGUUGG,-2.51 ± 0.08,-1.94 ± 0.1
CGGGAGCAAUAUUACGUUCU,-3.58 ± 0.18,-1.49 ± 0.19
AAGAAGCAAUAUUACGAAUA,-1.86 ± 0.17,-0.73 ± 0.12
GCAAAGCAAUAUUACGUCCG,-1.98 ± 0.25,-1.74 ± 0.31

Sequence,self-splicing fitness (ln) (30 °C),self-splicing fitness (ln) (37 °C)
GAGGAGCAAUAUUACGGUCU,-3.51 ± 0.48,-0.511 ± 0.21
UUUUAGCAAUAUUACGCCAA,-2.27 ± 0.35,0.0505 ± 0.22
AAGUAGCAAUAUUACGCAUA,-1.31 ± 0.15,-0.759 ± 0.15
AUUUAGCAAUAUUACGAAGU,-1.91 ± 0.23,-1.24 ± 0.18
CUCGAGCAAUAUUACGCUCG,-2.72 ± 0.42,–
UGUCAGCAAUAUUACGGAUU,-1.57 ± 0.083,-0.507 ± 0.12
AUUGAGCAAUAUUACGAGUG,-2.69 ± 0.28,-2.76 ± 0.38
CUGGAGCAAUAUUACGCAAG,-2.82 ± 0.21,-2.08 ± 0.27
GGGCAGCAAUAUUACGCGGC,–,-1.26 ± 0.38
GUGCAGCAAUAUUACGUUAC,-3.66 ± 0.33,-2.93 ± 0.38
GUAUAGCAAUAUUACGAACA,-2.44 ± 0.27,-1.21 ± 0.27
AGAAAGCAAUAUUACGCACC,0.221 ± 0.098,0.0714 ± 0.12
ACUUAGCAAUAUUACGACUC,-1.05 ± 0.12,-0.137 ± 0.15
GAAGAGCAAUAUUACGCUGC,–,-2.63 ± 0.48
UAACAGCAAUAUUACGUCAG,-1.53 ± 0.073,-0.0779 ± 0.085
AUCUAGCAAUAUUACGGGAC,-2.44 ± 0.17,-1.03 ± 0.13
UACUAGCAAUAUUACGGGUG,-0.974 ± 0.077,-0.232 ± 0.075
CCUUAGCAAUAUUACGUCUC,–,-2.63 ± 0.3
GACGAGCAAUAUUACGAUAC,-4.85 ± 0.28,-2.16 ± 0.2
CGCCAGCAAUAUUACGGUUC,-2.29 ± 0.11,-1.54 ± 0.11
GCCAAGCAAUAUUACGCACU,-0.915 ± 0.077,-0.196 ± 0.097

# Reference: the supplement of paper PMC7877785
